Measurements as given in PMC4409540 (Nature, 2015).

Biological target: the molecule itself
Experiment: cryo-EM structure

B1: MBP-tagged human TRPA1 (full-length) (natural protein, UniProt O75762 1-1119, looked up)
chain: MKRSLRKMWRPGEKKEPQGVVYEDVPDDTEDFKESLKVVFEGSAYGLQNFNKQKKLKRCDDMDTFFLHYAAAEGQIELMEKITRDSSLEVLHEMDDYGNTPLHCAVEKNQIESVKFLLSRGANPNLRNFNMMAPLHIAVQGMNNEVMKVLLEHRTIDVNLEGENGNTAVIIACTTNNSEALQILLKKGAKPCKSNKWGCFPIHQAAFSGSKECMEIILRFGEEHGYSRQLHINFMNNGKATPLHLAVQNGDLEMIKMCLDNGAQIDPVEKGRCTAIHFAATQGATEIVKLMISSYSGSVDIVNTTDGCHETMLHRASLFDHHELADYLISVGADINKIDSEGRSPLILATASASWNIVNLLLSKGAQVDIKDNFGRNFLHLTVQQPYGLKNLRPEFMQMQQIKELVMDEDNDGCTPLHYACRQGGPGSVNNLLGFNVSIHSKSKDKKSPLHFAASYGRINTCQRLLQDISDTRLLNEGDLHGMTPLHLAAKNGHDKVVQLLLKKGALFLSDHNGWTALHHASMGGYTQTMKVILDTNLKCTDRLDEDGNTALHFAAREGHAKAVALLLSHNADIVLNKQQASFLHLALHNKRKEVVLTIIRSKRWDECLKIFSHNSPGNKCPITEMIEYLPECMKVLLDFCMLHSTEDKSCRDYYIEYNFKYLQCPLEFTKKTPTQDVIYEPLTALNAMVQNNRIELLNHPVCKEYLLMKWLAYGFRAHMMNLGSYCLGLIPMTILVVNIKPGMAFNSTGIINETSDHSEILDTTNSYLIKTCMILVFLSSIFGYCKEAGQIFQQKRNYFMDISNVLEWIIYTTGIIFVLPLFVEIPAHLQWQCGAIAVYFYWMNFLLYLQRFENCGIFIVMLEVILKTLLRSTVVFIFLLLAFGLSFYILLNLQDPFSSPLLSIIQTFSMMLGDINYRESFLEPYLRNELAHPVLSFAQLVSFTIFVPIVLMNLLIGLAVGDIAEVQKHASLKRIAMQVELHTSLEKKLPLWFLRKVDQKSTIVYPNKPRSGGMLFHIFCFLFCTGEIRQEIPNADKSLEMEILKQKYRLKDLTFLLEKQHELIKLIIQKMEIISETEDDDSHCSFQDRFKKEQMEQRNSRWNTVLRAVKAKTHHLEP
  stoichiometry N: 4
